# Measurements published in publication PMC9539395 (2022).
# B1: sACE2_(2).v2.4(NN)‐IgG1 (Fc fusion)
# chain: QSTIEEQAKYFLDKFNHEAEDLFYQSSLASWNYNTNITEENVQNMNNAGDKWSAFLKEQSTTAQMYPLQEIQNLTVKLQLQALQQNGSSVLSEDKSKRLNTILNTMSTIYSTGKVCNPDNPQECLLLEPGLNEIMANSLDYNERLWAWESWRSEVGKQLRPLYEEYVVLKNEMARANHYEDYGDYWRGDYEVNGVDGYDYSRGQLIEDVEHTFEEIKPLYEHLHAYVRAKLMNAYPSYISPIGCLPAHLLGDMWGRFWTNLYSLTVPFGQKPNIDVTDAMVDQAWDAQRIFKEAEKFFVSVGLPNMTQGFWEYSMLTDPGNVQKAVCHPTAWDLGKGDFRILMCTKVTMDDFLTAHNEMGNIQYDMAYAAQPFLLRNGANEGFHEAVGEIMSLSAATPKHLKSIGLLSPDFQEDNETEINFLLKQALTIVGTLPFTYMLEKWRWMVFKGEIPKDQWMKKWWEMKREIVGVVEPVPHDETYCDPASLFHVSNDYSFIRYYTRTLYQFQFQEALCQAAKHEGPLHKCDISNSTEAGQKLFNMLRLGKSEPWTLALENVVGAKNMNVRPLLNYFEPLFTWLKDQNKNSFVGWSTDWSPYADQSIKVRISLKSALGDKAYEWNDNEMYLFRSSVAYAMRQYFLKVKNQMILFGEEDVRVANLKPRISFNFFVTAPKNVSDIIPRTEVEKAIRMSRSRINDAFRLNDNSLEFLGIQPTLG
# How the values were obtained:
# Assay in all cases: BLI
# Wuhan RBD‐8his [1] = target: T1, Wuhan RBD‐8his (SARS-CoV-2, UniProt P0DTC2)
# gamma RBD [2] = target: T2, gamma RBD (SARS-CoV-2, UniProt P0DTC2)
# Wuhan RBD‐8his [3] = target: T1, Wuhan RBD‐8his; remark: listed apart in the source
# gamma RBD [4] = target: T2, gamma RBD; remark: listed apart in the source
binder,measurement,setting,value
B1,koff,Wuhan RBD‐8his [1],0.00032 s⁻¹
same,Kd,gamma RBD [2],0.5 nM
same,Kd,Wuhan RBD‐8his [3],0.5 nM
same,koff,gamma RBD [4],0.00043 s⁻¹
